We go through 41 sequences from the nanobody polyreactivity screen of Harvey et al. (2022).

The data set in a line: yeast display, Sf9 membrane polyspecificity reagent, FACS + sequencing; frameworks hold sequencing errors. In outline: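 A synthetic nanobody library was expressed on Saccharomyces cerevisiae BJ5465 by galactose induction for 36–48 hours. The library was stained for 1 hour at 4 °C with 10% biotinylated, detergent-solubilized Sf9 membrane reagent and enriched with streptavidin microbeads before FACS. Low and high (top ~1%) gates were set on anti-HA fluorescence for expression and streptavidin fluorescence for reagent binding, and each polyreactivity label reflects the gate of origin.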
For “QVQLVESGGGLVQAGGSLRLSCAASGSTFGRNAMGWYRQAPGKERELVATITKSGGSTYYADSVKGRFTISRDNAKNTVYLQMNSLKPEDTAVYYCAKGVYYKVLRGGGDYWGQGTQVTVSS”, the “polyreactivity (PSR sort gate)” value is reported as “high polyreactivity”. Regarding “QVQLVESGGGLVQAGGSLRLSCAASGSTFGRNTMGWYRQAPGKERELVAAITSGDTTTYADSVKGRFTISRDNAKNTVYLQMNSLKPEVTAVYYCAVDPVRGRDYSWMDYWGQGTQVTVSS”, the “polyreactivity (PSR sort gate)” value is “low polyreactivity”. With “QVQLVESGGGLVQAGGSLRLSCAASGSTFGRYAMGWYRQAPGKEREFVAAISCSGGSTYYADSVKGRFTISRDNAKNTVYLQMNSLNPEDTAVYYWARYSWRGLAEFESWGQGTQVTVSS”, the “polyreactivity (PSR sort gate)” value was “low polyreactivity”.

As to “QVQLVESGGGLVQAGGSLRLSCAASGSTFGRYAMGWYRQAPGKERELFAAISWSGGSTYYADSVKGRFTISRDNAKNTVYLQMNSLKPEDTAVYYCNKAGIYIYGSYYWGQGTQVTVSS”, the “polyreactivity (PSR sort gate)” value was “high polyreactivity”. Next, “QVQLVESGGGLVQAGGSLRLSCAASGSTFGRYAMGWYRQAPGKERELVAAITTSGGRTRYADSVKGRFTISRDNAKNPVYLQMNSLKPEDTAVYYCAASGAQGPDYDYWGQGTQVTVSS”: “low polyreactivity”; “QVQLVESGGGLVQAGGSLRLSCAASGSTFGRYAMGWYRQAPGKERELVATIDGSDGSTFYADSVKGRFTISRDNAKNTVYLQMNSLKPEDTAVYYCAAAWYDGYYYLVYYWGQGTQVTVSS”: “low polyreactivity”. Next, “QVQLVESGGGLVQAGGSLRLSCAASGSTFGRYAMGWYRQAPGKESELVAAISSSGGRTYYADSVKGRFTISRDNAKNTVYLQMNSLKPEDTAVYYCAAPGAQGLGLRGAGLDYWGQGTQVTVSW”: “high polyreactivity”. For “QVQLVESGGGLVQAGGSLRLSCAASGSTFGRYAMGWYRQATGKEMELVAAITRSGGRTYYADSVKGRFTISRDNAKNNVYLQMNSLKPEDTAVYYCAAVGNLYYTSHWQYDYWGQGTQVTVSS”, the “polyreactivity (PSR sort gate)” value is listed as “high polyreactivity”. With “QVQLVESGGGLVQAGGSLRLSCAASGSTFGRYTMGWYRQAPRKERELVAAITSGGGSTYYADSVKGRFTISRDNAKNTVYLQMNSLKPEDTAVYYCAARSLVQDHAYGYNYWGQGTQVTVSS”, the “polyreactivity (PSR sort gate)” value is “low polyreactivity”. In the case of “QVQLVESGGGLVQAGGSLRLSCAASGSTFGRYVMGWYRQAPGKERELVAAISKNAGSTYYADSVKGRFTISRDNAKNTVYLHMNSLKPEDTAVYYCAADWRTKGYDSLGQGTQVTVSS” it was “high polyreactivity”; in that of “QVQLVESGGGLVQAGGSLRLSCAASGSTFGRYVMGWYRQAPGKERELVAAISKNAGSTYYADSVKGRFTISRDNAKNTVYLQMNRLKPEDTAVYYCAADWRTKGYDSLGQGTQVTVSS”, “high polyreactivity”.

Take “QVQLVESGGGLVQAGGSLRLSCAASGSTFGSNAMGWYRQAPGKERELVAAITNGGSTNYADSVKGRFTISRDNAKNTVYLQMHSLKPEDTAVYYCNADPQQSKLWTYFFGFPGYYWGQGTQVTVSS”: the “polyreactivity (PSR sort gate)” value is “low polyreactivity”.

Consider “QVQLVESGGGLVQAGGSLRLSCAASGSTFGSNAMGWYRQAPGKERELVAAITRRGGSTYYADSVKGRFTISRDKAKNTVYLQMNSLKPEDTAVYYCAAQIHPRRDYSAFDYWGQGTQVTVSS”, for which the “polyreactivity (PSR sort gate)” value was “low polyreactivity”. As for “QVQLVESGGGLVQAGGSLRLSCAASGSTFGSYAMGWYRQAPGKVRELVASIRSSGTSTYYADSVKGRFTISRDNAKNTVYLQMNSLKPEDTAVYYCAKRYFTWRSTYNYWGQGTQVTVSS”, the “polyreactivity (PSR sort gate)” value is reported as “high polyreactivity”. Turning to “QVQLVESGGGLVQAGGSLRLSCAASGSTFGSYAMGWYRQAPGTERELVAAISRAGSTYADSVKGRFTISRDNAKNTVYLQMHSLKPEDTAVYYCANRDNALYYGYDYWGQGTQVTVSS”, the “polyreactivity (PSR sort gate)” value was “low polyreactivity”.

“QVQLVESGGGLVQAGGSLRLSCAASGSTFGSYTMGWYRQAPGKERELVAAINWSGGNTYYADSVKGRFTISRDNAKNTVYLQINSLKPEDTAVYYCAAAFYIYGVEGDYWGQGTQVTVSS”: the “polyreactivity (PSR sort gate)” value is listed as “low polyreactivity”.

With “QVQLVESGGGLVQAGGSLRLSCAASGSTFGTYAMGWSRQAPGKERELVAAITSGGSTDYADSVKGRFTISRDNAKNTVYLQMNSLKPEDTAVYYCNATWELLSYYYLFWGYDYWGQGTQVTVSS”, the “polyreactivity (PSR sort gate)” value is reported as “low polyreactivity”.

“QVQLVESGGGLVQAGGSLRLSCAASGSTFGTYAMGWYRQAPGKERELVAAISRRGGSTYYADSVKGRFTISRDNAKNTVYLQMNSLKTEDTAVYYCAARKFHPDDNYWGQGTQVTVSS”: the “polyreactivity (PSR sort gate)” value is given as “high polyreactivity”.

Regarding “QVQLVESGGGLVQAGGSLRLSCAASGSTFGTYAMGWYRQAPGKERELVATISIGGITYYADSVKGRFTISRDNAKNTVYLQMNSLKPEDTAVYYCAKDVTDPTSRSDPSGDDYWGQGTQVTVSS”, the “polyreactivity (PSR sort gate)” value was “low polyreactivity”. Next, “QVQLVESGGGLVQAGGSLRLSCAASGSTFGTYAMGWYRQEPGKERELVAAIRWSGVSTYYADSVKGRFTISRDNAKNTVYLQMNSLKPEDTAVYYCAVALWVRGTYIYEYWGQGTQVTVSS”: “high polyreactivity”; “QVQLVESGGGLVQAGGSLRLSCAASGSTFGTYARGWYRQAPGKERELVAAISWSGGSTYYADSVKGRFTISRDNAKNTVYLQMNSLKPEDTAVYYCNAKTSIGTWVGDDYWGQGTQVTVSS”: “low polyreactivity”; “QVQLVESGGGLVQAGGSLRLSCAASGSTFGTYVMGWYRQAPGKERELVAAISKRGGRTYYADSVKGRFTISRDNAKNTVYLQMNSLKPEDTAVYYCNAVYLYSGSSARYYWGQGTQVTVSS”: “high polyreactivity”. Turning to “QVQLVESGGGLVQAGGSLRLSCAASGSTFGVYAMGWSRQAPGKERELDAAIRWSDGTTYYADSVKGRFTNSRDNAKNPVYLQMNSLKPEDTAVYYCAAVGYKRGTGRYGYWGQGTQVTVSS”, the “polyreactivity (PSR sort gate)” value is listed as “high polyreactivity”.

“QVQLVESGGGLVQAGGSLRLSCAASGSTFGVYAMVWYRQAPGKERELVAAINYSGRTYYADSVKGRFTISRDNAKNTVYLQMNSLKPEDTAVYYCAARIIVDDVGTKYYYWGQGTQVTVSS”: the “polyreactivity (PSR sort gate)” value is reported as “high polyreactivity”. Take “QVQLVESGGGLVQAGGSLRLSCAASGSTFGVYTMGWYRQAPGKERELVAAITKSGGSTYYADSVKGRFTISRDNAKNTVYLQMNSLKPEDTAVYYCNTDYGRYLYYRYGYWGQGTQVTVSS”: the “polyreactivity (PSR sort gate)” value is given as “low polyreactivity”. For “QVQLVESGGGLVQAGGSLRLSCAASGSTFGWNAMGWYRQAPGKERELVAAISRSGGRTYYADSVKGRFTISRDNAKNTVYLQMNSLKPEDTAVYYCAADRSTTGGLRGYWGQGTQVTVSS”, the “polyreactivity (PSR sort gate)” value is “high polyreactivity”. As to “QVQLVESGGGLVQAGGSLRLSCAASGSTFGWNAMGWYRQAPGKERELVAAISSRGGSTSYADSVKGRFTISRDNAKNSVYLQMNSLKPEYTAVYYCAAPYVYYRYGYWGLGTQVTVSS”, the “polyreactivity (PSR sort gate)” value is given as “low polyreactivity”. In the case of “QVQLVESGGGLVQAGGSLRLSCAASGSTFGWNAMGWYRQAPGKERELVAAISSSGGITYYADSVKGRFTISRDNAKNTVYLQMNSLKPEDTAVYYCAAERDDDWVNYWGQGTQVTVSS” it was “low polyreactivity”. For “QVQLVESGGGLVQAGGSLRLSCAASGSTFGWNAMGWYRQAPGKERELVAAISSSGGITYYAYSVKGRFTISRDKAKNTVSLQMNSLKPEDTAVYYCAAERDDDWGNYWGQGTQVTGSS”, the “polyreactivity (PSR sort gate)” value is given as “low polyreactivity”.

For “QVQLVESGGGLVQAGGSLRLSCAASGSTFGWYALGWYRQAPGKERELVAAIRSNGGSTYYADSVKGRFTLSRDNAKNTVYLQINSLKPEDTAVYYCAARGSPSKHHWYDYWGQGTQVTVSS”, the “polyreactivity (PSR sort gate)” value is given as “low polyreactivity”. As for “QVQLVESGGGLVQAGGSLRLSCAASGSTFGWYAMGWYRQAPGKERELVASITWDGGRTYYAHSVKGRFTISRDNAKNTVYLQMNSLKPEDTAVYYCAARGVSSPLNYWGQGSQVTVSS”, the “polyreactivity (PSR sort gate)” value is reported as “low polyreactivity”. For “QVQLVESGGGLVQAGGSLRLSCAASGSTFGWYTMGWYRQAPGKERELVAAINYSGGSTYYADSVKGRFTISRDNAKNTVYLQMNSLKPEDTAVYYCATDQSTYLYGYYYWGQGTQVTVSS”, the “polyreactivity (PSR sort gate)” value is “low polyreactivity”. In the case of “QVQLVESGGGLVQAGGSLRLSCAASGSTFGWYTMGWYRQAPGKERELVAAISSGGRTYYADSVKGRFTISRDNEKNTVYLQMNILKPEDTAVYYCAAGIYSSRHSPYGYWGQGTQVTVSS”, the “polyreactivity (PSR sort gate)” value was “high polyreactivity”. Consider “QVQLVESGGGLVQAGGSLRLSCAASGSTFGYNAMGWYRQAPGKERELVAAITRSGGSTDYADSVKGRFTISRDNAKNTVYFQMNSLKPEDTAVYYCAAEGTGLQRYGYFGDDGYWGQGTQVTVSS”, for which the “polyreactivity (PSR sort gate)” value is “low polyreactivity”.

As for “QVQLVESGGGLVQAGGSLRLSCAASGSTFGYNAMGWYRQAPGKERELVAAITWSGGSTYYADSVKGRFTISRDNAKNTVYLQMNSLKPEDTAAYYCAADDWYNSKWHYYYWGQGTQVTVSS”, the “polyreactivity (PSR sort gate)” value is reported as “low polyreactivity”. Consider “QVQLVESGGGLVQAGGSLRLSCAASGSTFGYYAMGWSRQAPGKERELVAAITGSGGSTYYADSVKGRFTISRDNAKNTVYLQMNSLKPEDTAVYYCATSYLLGRYYEYYYWGQGTQVTVSS”, for which the “polyreactivity (PSR sort gate)” value was “high polyreactivity”. Take “QVQLVESGGGLVQAGGSLRLSCAASGSTFGYYAMGWYRQAPGKERELVAAISASGSRTYYADSVKGRFTISRDNAKNTVYSQMNSQKPEDTAVYYCPALQYRRKIPTAYAGDYWGQGTQVTVSS”: the “polyreactivity (PSR sort gate)” value was “high polyreactivity”. Next, “QVQLVESGGGLVQAGGSLRLSCAASGSTFGYYAMGWYRQAPGKERELVAAITASGGGTYYADSVKGRFTISRDNAKNTFYLQMNSLKPEDTEVYYCNRGYDYWGQGTHVTVSS”: “low polyreactivity”; “QVQLVESGGGLVQAGGSLRLSCAASGSTFGYYAMGWYRQAPGKERELVAAITGSGGRTYYADSVKGRFTISRDNAKNTVYLQMNSLKPEDTAVYYCAARTYRTEFAYGSWGQGTQVTVSS”: “low polyreactivity”; “QVQLVESGGGLVQAGGSLRLSCAASGSTFGYYAMGWYRQAPGKERELVAAITSGGTTNYADSVKGRFTISRDNAKNTVYLQMNSLKPEDTAVYYCNAVGTFVRYWTDGRDGVTYDYWGQGTQVTVSS”: “low polyreactivity”.

For the sequence “QVQLVESGGGLVQAGGSLRLSCAASGSTFGYYAMGWYRQAPGKERELVADISKSSGSTYYADSVKGRFTISRDNAKNTVYLQMNSLKPEDTAVYYCNRRYYYRTYDYWGQGTQVTVSS”, the “polyreactivity (PSR sort gate)” value is recorded as “high polyreactivity”.
